From the supplement of paper PMC6755084 come the findings set out here.

B1: minF1; the commonest letter at each place (parent)
chain: GAGACCGCAACTGAAAAGTTGTTATCAGAAATGGATGGGTTGAATTTCTGCACGTAGAAGCAAAAGGC

In this data set the parent is B1. Description: fraction ligated after 30 min (ligated reads / total reads); higher = more ligase activity. To be noted: with F1*subA RNA substrate (template-directed ligation), 42 °C. Summed up: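 Ligated and unligated RNAs from a pool of minimized ligase ribozyme variants were separated on gels, reverse transcribed with barcoded primers and sequenced on a MiSeq. Core bases needed quality ≥30 to pass the filter. Each variant's fraction ligated was then taken as ligated reads over total reads.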
For GAGACCGCAACTGAAAAGTTGTTATCCGAAATGGGTGGGTTGAATTTCTGCACGTAGAAGCAAAAGGC, the fraction ligated was determined as 0.112.
Take GAGACCGCAACTGAAAAGTTGTTATCCGAAATGGTTGGGTTGAATTTCTGCACGTAGAAGCAAAAGGC: the fraction ligated was found to be 0.176.
GAGACCGCAACTGAAAAGTTGTTATCCGAAATGGCTGGGTTGAATTTCTGCACGTAGAAGCAAAAGGC: the fraction ligated is 0.481.
Regarding GAGACCGCAACTGAAAAGTTGTTATCCGAAATGGATGGGTTGAATTTCTGCACGTAGAAGCAAAAGGC, the fraction ligated was 0.694.
Regarding GAGACCGCAACTGAAAAGTTGTTATCCGTAATGGATGGGTTGAATTTCTGCACGTAGAAGCAAAAGGC, the fraction ligated stood at 0.501.
Consider GAGACCGCAACTGAAAAGTTGTTATCCGGAATGGATGGGTTGAATTTCTGCACGTAGAAGCAAAAGGC, for which the fraction ligated is 0.61.
GAGACCGCAACTGAAAAGTTGTTATCCGCAATGGATGGGTTGAATTTCTGCACGTAGAAGCAAAAGGC: the fraction ligated was found to be 0.623.
Regarding GAGACCGCAACTGAAAAGTTGTTATTACAAATGGATGGGTTGAATTTCTGCACGTAGAAGCAAAAGGC, the fraction ligated was 0.61.
Consider GAGACCGCAACTGAAAAGTTGTTATTAAAAATGGATGGGTTGAATTTCTGCACGTAGAAGCAAAAGGC, for which the fraction ligated is 0.362.
As for GAGACCGCAACTGAAAAGTTGTTATTATAAATGGATGGGTTGAATTTCTGCACGTAGAAGCAAAAGGC, the fraction ligated was 0.55.
Turning to GAGACCGCAACTGAAAAGTTGTTATCCGAAATAGATGGGTTGAATTTCTGCACGTAGAAGCAAAAGGC, the fraction ligated is 0.835.
In the case of GAGACCGCAACTGAAAAGTTGTTATCCGAAATTGATGGGTTGAATTTCTGCACGTAGAAGCAAAAGGC, the fraction ligated is 0.818.
On to GAGACCGCAACTGAAAAGTTGTTATCCGAAATCGATGGGTTGAATTTCTGCACGTAGAAGCAAAAGGC, for which the fraction ligated came out at 0.817.
As for GAGACCGCAACTGAAAAGTTGTTATTAGAAATGCATGGGTTGAATTTCTGCACGTAGAAGCAAAAGGC, the figure is 0.00303.
For the variant GAGACCGCAACTGAAAAGTTGTTATTAGAAATGAATGGGTTGAATTTCTGCACGTAGAAGCAAAAGGC, the fraction ligated was 0.623.
GAGACCGCAACTGAAAAGTTGTTATTAGAAATGTATGGGTTGAATTTCTGCACGTAGAAGCAAAAGGC: the fraction ligated was determined as 0.0063.
Consider GAGACCGCAACTGAAAAGTTGTTATTAGAATTGGATGGGTTGAATTTCTGCACGTAGAAGCAAAAGGC, for which the fraction ligated was 0.404.
On to GAGACCGCAACTGAAAAGTTGTTATTAGAAGTGGATGGGTTGAATTTCTGCACGTAGAAGCAAAAGGC, for which the fraction ligated was 0.52.
As to GAGACCGCAACTGAAAAGTTGTTATTAGAACTGGATGGGTTGAATTTCTGCACGTAGAAGCAAAAGGC, the fraction ligated was found to be 0.312.
With GAGACCGCAACTGAAAAGTTGTTATTGGAAATGGATGGGTTGAATTTCTGCACGTAGAAGCAAAAGGC, the fraction ligated was found to be 0.544.
Then GAGACCGCAACTGAAAAGTTGTTATTTGAAATGGATGGGTTGAATTTCTGCACGTAGAAGCAAAAGGC, with 0.816; and GAGACCGCAACTGAAAAGTTGTTATTCGAAATGGATGGGTTGAATTTCTGCACGTAGAAGCAAAAGGC, with 0.79; and GAGACCGCAACTGAAAAGTTGTTATTAGAAATGGATGGGTTGACTTTCTGCACGTAGAAGCAAAAGGC, with 0.091.
For the variant GAGACCGCAACTGAAAAGTTGTTATTAGAAATGGATGGGTTGATTTTCTGCACGTAGAAGCAAAAGGC, the fraction ligated is 0.246.
As to GAGACCGCAACTGAAAAGTTGTTATTAGAAATGGATGGGTTGAGTTTCTGCACGTAGAAGCAAAAGGC, the fraction ligated was determined as 0.142.
As to GAGACCGCAACTGAAAAGTTGTTATTAGAAAGGGATGGGTTGAATTTCTGCACGTAGAAGCAAAAGGC, the fraction ligated was 0.00682.
Take GAGACCGCAACTGAAAAGTTGTTATTAGAAAAGGATGGGTTGAATTTCTGCACGTAGAAGCAAAAGGC: the fraction ligated came to 0.00354.
As to GAGACCGCAACTGAAAAGTTGTTATTAGAAACGGATGGGTTGAATTTCTGCACGTAGAAGCAAAAGGC, the fraction ligated amounted to 0.00511.
GAGACCGCAACTGAAAAGTTGTTATGAGAAATGGAAGGGTTGAATTTCTGCACGTAGAAGCAAAAGGC: the fraction ligated stood at 0.00192.
As for GAGACCGCAACTGAAAAGTTGTTATGAGAAATGGACGGGTTGAATTTCTGCACGTAGAAGCAAAAGGC, the fraction ligated was found to be 0.00195.
With GAGACCGCAACTGAAAAGTTGTTATGAGAAATGGAGGGGTTGAATTTCTGCACGTAGAAGCAAAAGGC, the fraction ligated amounted to 0.00843.
As for GAGACCGCAACTGAAAAGTTGTTATTAGAAATGGTTGGGTTGAATTTCTGCACGTAGAAGCAAAAGGC, the fraction ligated is 0.0022.
GAGACCGCAACTGAAAAGTTGTTATTAGAAATGGCTGGGTTGAATTTCTGCACGTAGAAGCAAAAGGC: the fraction ligated worked out at 0.00406.
As for GAGACCGCAACTGAAAAGTTGTTATTAGAAATGGGTGGGTTGAATTTCTGCACGTAGAAGCAAAAGGC, the figure is 0.0104; as for GAGACCGCAACTGAAAAGTTGTTATTAGAAATTGATGGGTTGAATTTCTGCACGTAGAAGCAAAAGGC, 0.206; as for GAGACCGCAACTGAAAAGTTGTTATTAGAAATCGATGGGTTGAATTTCTGCACGTAGAAGCAAAAGGC, 0.325.
As for GAGACCGCAACTGAAAAGTTGTTATTAGAAATAGATGGGTTGAATTTCTGCACGTAGAAGCAAAAGGC, the figure is 0.481; as for GAGACCGCAACTGAAAAGTTGTTATTAGAAATGGATGGGTTAAATTTCTGCACGTAGAAGCAAAAGGC, 0.0165.
Regarding GAGACCGCAACTGAAAAGTTGTTATTAGAAATGGATGGGTTCAATTTCTGCACGTAGAAGCAAAAGGC, the fraction ligated came out at 0.00245.
GAGACCGCAACTGAAAAGTTGTTATTAGAAATGGATGGGTTTAATTTCTGCACGTAGAAGCAAAAGGC: the fraction ligated stood at 0.00392.
GAGACCGCAACTGAAAAGTTGTTATTAGAAATGGATGGGTTGAATTTCTGCACGTAGAAGCAAAAGGC: the fraction ligated is 0.433.
As for GAGACCGCAACTGAAAAGTTGTTATGAGAAAAGGATGGGTTGAATTTCTGCACGTAGAAGCAAAAGGC, the fraction ligated was 0.00367.
Then GAGACCGCAACTGAAAAGTTGTTATGAGAAAGGGATGGGTTGAATTTCTGCACGTAGAAGCAAAAGGC, with 0.00509; and GAGACCGCAACTGAAAAGTTGTTATGAGAAACGGATGGGTTGAATTTCTGCACGTAGAAGCAAAAGGC, with 0.00208.
In the case of GAGACCGCAACTGAAAAGTTGTTATCCGAACTGGATGGGTTGAATTTCTGCACGTAGAAGCAAAAGGC, the fraction ligated is 0.421.
As for GAGACCGCAACTGAAAAGTTGTTATCCGAAGTGGATGGGTTGAATTTCTGCACGTAGAAGCAAAAGGC, the figure is 0.687; as for GAGACCGCAACTGAAAAGTTGTTATCCGAATTGGATGGGTTGAATTTCTGCACGTAGAAGCAAAAGGC, 0.455.
As to GAGACCGCAACTGAAAAGTTGTTATTAGAAATGGATCGGTTGAATTTCTGCACGTAGAAGCAAAAGGC, the fraction ligated came out at 0.00325.
As for GAGACCGCAACTGAAAAGTTGTTATTAGAAATGGATAGGTTGAATTTCTGCACGTAGAAGCAAAAGGC, the fraction ligated came out at 0.00482.
With GAGACCGCAACTGAAAAGTTGTTATTAGAAATGGATTGGTTGAATTTCTGCACGTAGAAGCAAAAGGC, the fraction ligated was 0.00513.
On to GAGACCGCAACTGAAAAGTTGTTATCCAAAATGGATGGGTTGAATTTCTGCACGTAGAAGCAAAAGGC, for which the fraction ligated was determined as 0.503.
Then GAGACCGCAACTGAAAAGTTGTTATCCCAAATGGATGGGTTGAATTTCTGCACGTAGAAGCAAAAGGC, with 0.61; and GAGACCGCAACTGAAAAGTTGTTATCCTAAATGGATGGGTTGAATTTCTGCACGTAGAAGCAAAAGGC, with 0.628; and GAGACCGCAACTGAAAAGTTGTTATGAGAAATGGATGGGTTTAATTTCTGCACGTAGAAGCAAAAGGC, with 0.00229.
As for GAGACCGCAACTGAAAAGTTGTTATGAGAAATGGATGGGTTCAATTTCTGCACGTAGAAGCAAAAGGC, the fraction ligated worked out at 0.00152.
Consider GAGACCGCAACTGAAAAGTTGTTATTAGATATGGATGGGTTGAATTTCTGCACGTAGAAGCAAAAGGC, for which the fraction ligated is 0.339.
In the case of GAGACCGCAACTGAAAAGTTGTTATTAGACATGGATGGGTTGAATTTCTGCACGTAGAAGCAAAAGGC, the fraction ligated stood at 0.333.
Regarding GAGACCGCAACTGAAAAGTTGTTATTAGAGATGGATGGGTTGAATTTCTGCACGTAGAAGCAAAAGGC, the fraction ligated is 0.5.
Then GAGACCGCAACTGAAAAGTTGTTATTAGCAATGGATGGGTTGAATTTCTGCACGTAGAAGCAAAAGGC, with 0.39; and GAGACCGCAACTGAAAAGTTGTTATTAGTAATGGATGGGTTGAATTTCTGCACGTAGAAGCAAAAGGC, with 0.43.
As for GAGACCGCAACTGAAAAGTTGTTATTAGGAATGGATGGGTTGAATTTCTGCACGTAGAAGCAAAAGGC, the fraction ligated stood at 0.417.
In the case of GAGACCGCAACTGAAAAGTTGTTATCCGAAATGGATGGGTTGCATTTCTGCACGTAGAAGCAAAAGGC, the fraction ligated was determined as 0.0394.
On to GAGACCGCAACTGAAAAGTTGTTATCCGAAATGGATGGGTTGTATTTCTGCACGTAGAAGCAAAAGGC, for which the fraction ligated was 0.0472.
Regarding GAGACCGCAACTGAAAAGTTGTTATCCGAAATGGATGGGTTGGATTTCTGCACGTAGAAGCAAAAGGC, the fraction ligated came out at 0.0284.
With GAGACCGCAACTGAAAAGTTGTTATCCGACATGGATGGGTTGAATTTCTGCACGTAGAAGCAAAAGGC, the fraction ligated is 0.465.
For the variant GAGACCGCAACTGAAAAGTTGTTATCCGATATGGATGGGTTGAATTTCTGCACGTAGAAGCAAAAGGC, the fraction ligated turned out to be 0.403.
As for GAGACCGCAACTGAAAAGTTGTTATCCGAGATGGATGGGTTGAATTTCTGCACGTAGAAGCAAAAGGC, the fraction ligated turned out to be 0.759.
As for GAGACCGCAACTGAAAAGTTGTTATCCGAAATGGATGGGTTGAGTTTCTGCACGTAGAAGCAAAAGGC, the figure is 0.38; as for GAGACCGCAACTGAAAAGTTGTTATCCGAAATGGATGGGTTGATTTTCTGCACGTAGAAGCAAAAGGC, 0.441.
On to GAGACCGCAACTGAAAAGTTGTTATCCGAAATGGATGGGTTGACTTTCTGCACGTAGAAGCAAAAGGC, for which the fraction ligated stood at 0.244.
As for GAGACCGCAACTGAAAAGTTGTTATTAGAAATGGATGGGTTGGATTTCTGCACGTAGAAGCAAAAGGC, the figure is 0.0095.
Take GAGACCGCAACTGAAAAGTTGTTATTAGAAATGGATGGGTTGCATTTCTGCACGTAGAAGCAAAAGGC: the fraction ligated was determined as 0.00569.
Take GAGACCGCAACTGAAAAGTTGTTATTAGAAATGGATGGGTTGTATTTCTGCACGTAGAAGCAAAAGGC: the fraction ligated worked out at 0.0127.
On to GAGACCGCAACTGAAAAGTTGTTATTAGAAATGGAGGGGTTGAATTTCTGCACGTAGAAGCAAAAGGC, for which the fraction ligated turned out to be 0.0188.
For the variant GAGACCGCAACTGAAAAGTTGTTATTAGAAATGGACGGGTTGAATTTCTGCACGTAGAAGCAAAAGGC, the fraction ligated came to 0.00419.
For GAGACCGCAACTGAAAAGTTGTTATTAGAAATGGAAGGGTTGAATTTCTGCACGTAGAAGCAAAAGGC, the fraction ligated was found to be 0.0132.
Take GAGACCGCAACTGAAAAGTTGTTATCCGAAATGCATGGGTTGAATTTCTGCACGTAGAAGCAAAAGGC: the fraction ligated was found to be 0.00877.
GAGACCGCAACTGAAAAGTTGTTATCCGAAATGAATGGGTTGAATTTCTGCACGTAGAAGCAAAAGGC: the fraction ligated came out at 0.15.
As for GAGACCGCAACTGAAAAGTTGTTATCCGAAATGTATGGGTTGAATTTCTGCACGTAGAAGCAAAAGGC, the figure is 0.0114.
